Assay results as given in patent US20120276009A1 (KATHOLIEKE UNIVERSITEIT LEUVEN, published 2012).

T1: T1.6: Tau5-20 (non-phosphorylated peptide) (human)
T1 construct: Non-phosphorylated counterpart of T1.5; also called Tau peptide
T1 peptide: RQEFEVMEDHAGTYGL


Key:
[1] = target: T1, T1.6: Tau5-20 (non-phosphorylated …); test: ELISA, peptide coated at 10 µg/mL
[2] = target: T2, full-length (441 aa) human Tau protein (human, UniProt P10636 1-758); test: ELISA, protein coated at 1 µg/mL
T2 construct: Non-phosphorylated recombinant protein bought from SignalChem; also called Full-length Tau; Tau40
T2 sequence (P10636 other isoform, or with tags, fused parts or gaps limits assumed): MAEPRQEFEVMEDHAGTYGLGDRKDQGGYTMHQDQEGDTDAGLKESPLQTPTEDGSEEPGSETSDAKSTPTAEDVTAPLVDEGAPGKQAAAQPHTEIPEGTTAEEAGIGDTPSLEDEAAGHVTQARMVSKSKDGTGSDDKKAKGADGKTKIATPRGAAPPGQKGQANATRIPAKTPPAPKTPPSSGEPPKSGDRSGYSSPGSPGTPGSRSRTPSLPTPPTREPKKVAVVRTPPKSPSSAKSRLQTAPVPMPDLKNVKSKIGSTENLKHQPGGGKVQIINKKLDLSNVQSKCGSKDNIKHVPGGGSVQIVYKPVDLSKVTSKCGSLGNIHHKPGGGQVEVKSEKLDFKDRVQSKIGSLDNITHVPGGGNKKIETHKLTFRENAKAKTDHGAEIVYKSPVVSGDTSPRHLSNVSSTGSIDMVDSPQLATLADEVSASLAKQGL

| binding result [1] | binding result [2] | Binder |
| --- | --- | --- |
| no binding (tested: 20 µg/mL) | – | ACI-33-6C10-Ab2 (antibody, IgG3, V domains shown, Mouse monoclonal from hybridoma 6C10E5E9C12 (DSM ACC3081); also called 6C10E5E9C12) VH: EVQLVESGGGLVKPGGSLKLSCAPSGFTFSDYGMHWVRQAPEKGLEWVAYISSGSSTIYYGDTVKGRFTISRDNAKNTLFLQMTSLRSEDTAMYYCARRGQLRLRLFAYWGQGTLVTVSA VL: DIVMTQSHKFMSTSVGDRVSITCKASQDVSTAVAWYQQKPGQSPKLLIYSASYRYTGVPDRFTGSGSGTDFTFTISSVQAEDLAVYYCQQHYTTPLTFGAGTKLELK |
| – | no binding (tested: 20 µg/mL) | ACI-35-2G5-Ab1 (antibody, IgG2b, V domains shown, Mouse monoclonal from hybridoma A6-2G5-08; also called A6-2G5-08) VH: QVQLKQSGAELVRPGASVKLSCKASGYTFTDYYINWVKQRPGQGLEWIARIYPGRGNIYYNEKFKGKATLTAEKSSSTAYMQLSSLTSEDSAVYFCARFWDVTYWGQGTLVTVSA VL: DVLMTQTPLSLPVSLGDQASISCRSSQSIVHSNGNTYLEWFLQKPGQSPKLLIYKVSNRFSGVPDRFSGSGSGTDFTLKISRVEAEDLGVYYCFQGSHVPYTFGGGTKLEIK |
